In patent publication US11932673B2, “Sodium channel inhibitors” (priority 2017, dated 2024):
Residue numbers refer to the chain shown, from its start.

How the values were obtained:
[1] = system: trypsin; experiment: TRF binding assay of purified KnotBody Fabs on biotinylated trypsin
[2] = target: LOX-1 (Homo sapiens, UniProt P78380); experiment: Phage TRF binding assay of adhiron-antibody fusions on LOX-1; settings: monoclonal phage; LOX-1 directly immobilised; non-specific binding checked on cMET-FC, GAS6-CD4, FGFR4-CD4, UPA, B-gal
Experimental: In order to test the functionality of these adhiron-antibody fusions, monoclonal phage prepared from each clone was assessed for binding to LOX-1 in a TRF binding assay. In this assay, LOX-1 (immobilised directly on Maxisorp™ plates) binding of phage displaying adhiron-antibody fusion was detected using a mouse anti-M13 antibody (GE Healthcare) followed by europium conjugated anti-mouse antibody (Perkin Elmer). Parent KnotBodies KB_A07 and KB_A12 (EETI-II fusions) were included as controls. Proteins cMET-FC, GAS6-CD4, FGFR4-CD4, UPA and B-gal were used to examine non-specific binding.

[3] = system: trypsin; experiment: Phage TRF binding assay of KnotBody phage on immobilised biotinylated trypsin
Experimental: Phage display technology facilitates isolation of binders to any given target from large combinatorial repertoires based on proteins and peptides that can be presented on the surface of filamentous phage^105. In order to isolate functional knottin-antibody fusions from the KnotBody libraries multiple rounds of phage display selections on trypsin (cognate antigen for the EETI-II donor) were carried out. Phage particles were prepared by rescuing KnotBody libraries using trypsin cleavable helper phage^102,106 Two rounds of phage display selections were performed on 10 μg/ml biotinylated trypsin immobilised on Streptavidin (for Round-1) or Neutravidin (for round-2) coated Maxisorp™ immunotubes (Thermo Scientific, Cat No. 444202). In both rounds of selection, phage libraries were pre-incubated with streptavidin coated paramagnetic beads (Thermo Fisher Scientific, Cat. No. 11205D). These beads were removed prior to the addition the phage to the antigen tubes to limit the streptavidin binders entering the selection. Polyclonal phage preparations from round-2 selection outputs were analysed for trypsin binding using a time resolved fluorescence (TRF) binding assay. In this assay, polyclonal phage binding to biotinylated trypsin immobilised on neutravidin (Thermo Fisher Scientific, Cat. No 31000) coated Maxisorp™ plates (Thermo Scientific, Cat. No. 437111) was detected using a mouse anti-M13 antibody (GE Healthcare, Cat. No. 27-9420-01) followed by europium conjugated anti-mouse antibody (Perkin Elmer, Cat. No. AD0124).
In order to identify monoclonal KnotBodies with desired binding characteristics, 94 individual clones derived from 2 rounds of selection using EETI-II CDR1 or CDR2 libraries were picked into 96 well culture plates and phage were prepared from each clone. Methods for screening by monoclonal phage ELISA are known in the art^107. […] Clones with >3× binding signal above background were picked as positive clones and sequenced to identify unique clones. 14 and 42 unique binders were identified from EETI-II CDR1 and EETI-II CDR2 libraries respectively (Table 1). 18 binders from the EETI-II CDR2 library and 3 binders from the EETI-II-CDR1 library were chosen for further characterisation based on their VL and linker sequence diversity. These binders were assigned new clone identification numbers (Table 2). […] In order to confirm that the loss of trypsin binding was not due to reduced expression or display of pIII fusion phage was prepared from 11 (randomly chosen) KnotBodies and their GlyAla variants were analysed on a western blot using an antibody which recognises the product of gene 3 (pIII) using an anti-pIII antibody (MoBiTec GmbH) (FIG. 6).

[4] = target: T1, huASIC1a (Homo sapiens, UniProt P78348); experiment: QPatch automated whole-cell patch-clamp on HEK293 cells stably expressing huASIC1a; type: cell-based; settings: pH 6.0 activation after 15-20 min pre-incubation; concentration μM: KB_A07_PcTx1 6.6, KB_A12_PcTx1 5, KB_A12_Mba-1 3, KB_A12_Mba-2 2.3, KB_A07 6, KB_A12 3.3
T1 sequence (P78348 whole entry, looked up): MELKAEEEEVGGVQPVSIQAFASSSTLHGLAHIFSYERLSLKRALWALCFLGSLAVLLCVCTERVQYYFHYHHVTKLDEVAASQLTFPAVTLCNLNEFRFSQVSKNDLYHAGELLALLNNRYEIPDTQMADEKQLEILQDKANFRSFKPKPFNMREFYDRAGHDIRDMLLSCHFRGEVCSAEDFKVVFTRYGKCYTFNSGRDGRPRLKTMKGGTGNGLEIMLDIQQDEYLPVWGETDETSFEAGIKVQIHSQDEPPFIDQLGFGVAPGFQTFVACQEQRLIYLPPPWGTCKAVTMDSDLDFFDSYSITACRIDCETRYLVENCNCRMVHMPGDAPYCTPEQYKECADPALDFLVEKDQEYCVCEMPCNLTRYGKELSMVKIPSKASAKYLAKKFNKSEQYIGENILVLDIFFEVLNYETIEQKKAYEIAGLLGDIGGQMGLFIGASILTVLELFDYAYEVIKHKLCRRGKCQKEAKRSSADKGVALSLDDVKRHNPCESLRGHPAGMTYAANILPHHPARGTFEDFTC
Experimental: Knottin Kv 1.3 and ASIC1a blockers expressed in the KnotBody format (see examples 6 and 7) were tested for their ability to inhibit the function of the ion channel targets. The effect of these KnotBodies on cells expressing the human Kv 1.3 (huKv1.3) or human ASIC1a channels was assessed using QPatch automated whole-cell patch-clamp electrophysiology (Sophion).
To functionally assess the ASIC1a KnotBodies, HEK293 cells stably expressing huASIC1a (Sophion) were analysed using a QPatch electrophysiology assay in the presence or absence of the KnotBody fusions (using KB_A12 as a recipient and replacing the original EETI-II donor as shown in Table 8). The “parental” KB_A12 with the EETI-II donor was used as a negative control. Internal and external physiological solutions were freshly prepared prior to the assay. […]
At the end of each KnotBody incubation and subsequent ASIC1a current activation, a full blocking concentration (300 nM) of the ASIC1a knottin inhibitor PcTx1 (positive control) was perfused onto the cell recording and a final activating pH 6.0 external solution was applied. The percentage remaining signal between activating pH 6.0 baseline (i.e. pre-KnotBody) and post-KnotBody incubation was determined.

[5] = target: human Nav1.7 (Homo sapiens, UniProt Q15858); experiment: QPatch patch-clamp on CHO cells stably expressing human Nav1.7, single application (Example 19); type: cell-based
Sequence of human Nav1.7 (Q15858 other isoform, or with tags, fused parts or gaps): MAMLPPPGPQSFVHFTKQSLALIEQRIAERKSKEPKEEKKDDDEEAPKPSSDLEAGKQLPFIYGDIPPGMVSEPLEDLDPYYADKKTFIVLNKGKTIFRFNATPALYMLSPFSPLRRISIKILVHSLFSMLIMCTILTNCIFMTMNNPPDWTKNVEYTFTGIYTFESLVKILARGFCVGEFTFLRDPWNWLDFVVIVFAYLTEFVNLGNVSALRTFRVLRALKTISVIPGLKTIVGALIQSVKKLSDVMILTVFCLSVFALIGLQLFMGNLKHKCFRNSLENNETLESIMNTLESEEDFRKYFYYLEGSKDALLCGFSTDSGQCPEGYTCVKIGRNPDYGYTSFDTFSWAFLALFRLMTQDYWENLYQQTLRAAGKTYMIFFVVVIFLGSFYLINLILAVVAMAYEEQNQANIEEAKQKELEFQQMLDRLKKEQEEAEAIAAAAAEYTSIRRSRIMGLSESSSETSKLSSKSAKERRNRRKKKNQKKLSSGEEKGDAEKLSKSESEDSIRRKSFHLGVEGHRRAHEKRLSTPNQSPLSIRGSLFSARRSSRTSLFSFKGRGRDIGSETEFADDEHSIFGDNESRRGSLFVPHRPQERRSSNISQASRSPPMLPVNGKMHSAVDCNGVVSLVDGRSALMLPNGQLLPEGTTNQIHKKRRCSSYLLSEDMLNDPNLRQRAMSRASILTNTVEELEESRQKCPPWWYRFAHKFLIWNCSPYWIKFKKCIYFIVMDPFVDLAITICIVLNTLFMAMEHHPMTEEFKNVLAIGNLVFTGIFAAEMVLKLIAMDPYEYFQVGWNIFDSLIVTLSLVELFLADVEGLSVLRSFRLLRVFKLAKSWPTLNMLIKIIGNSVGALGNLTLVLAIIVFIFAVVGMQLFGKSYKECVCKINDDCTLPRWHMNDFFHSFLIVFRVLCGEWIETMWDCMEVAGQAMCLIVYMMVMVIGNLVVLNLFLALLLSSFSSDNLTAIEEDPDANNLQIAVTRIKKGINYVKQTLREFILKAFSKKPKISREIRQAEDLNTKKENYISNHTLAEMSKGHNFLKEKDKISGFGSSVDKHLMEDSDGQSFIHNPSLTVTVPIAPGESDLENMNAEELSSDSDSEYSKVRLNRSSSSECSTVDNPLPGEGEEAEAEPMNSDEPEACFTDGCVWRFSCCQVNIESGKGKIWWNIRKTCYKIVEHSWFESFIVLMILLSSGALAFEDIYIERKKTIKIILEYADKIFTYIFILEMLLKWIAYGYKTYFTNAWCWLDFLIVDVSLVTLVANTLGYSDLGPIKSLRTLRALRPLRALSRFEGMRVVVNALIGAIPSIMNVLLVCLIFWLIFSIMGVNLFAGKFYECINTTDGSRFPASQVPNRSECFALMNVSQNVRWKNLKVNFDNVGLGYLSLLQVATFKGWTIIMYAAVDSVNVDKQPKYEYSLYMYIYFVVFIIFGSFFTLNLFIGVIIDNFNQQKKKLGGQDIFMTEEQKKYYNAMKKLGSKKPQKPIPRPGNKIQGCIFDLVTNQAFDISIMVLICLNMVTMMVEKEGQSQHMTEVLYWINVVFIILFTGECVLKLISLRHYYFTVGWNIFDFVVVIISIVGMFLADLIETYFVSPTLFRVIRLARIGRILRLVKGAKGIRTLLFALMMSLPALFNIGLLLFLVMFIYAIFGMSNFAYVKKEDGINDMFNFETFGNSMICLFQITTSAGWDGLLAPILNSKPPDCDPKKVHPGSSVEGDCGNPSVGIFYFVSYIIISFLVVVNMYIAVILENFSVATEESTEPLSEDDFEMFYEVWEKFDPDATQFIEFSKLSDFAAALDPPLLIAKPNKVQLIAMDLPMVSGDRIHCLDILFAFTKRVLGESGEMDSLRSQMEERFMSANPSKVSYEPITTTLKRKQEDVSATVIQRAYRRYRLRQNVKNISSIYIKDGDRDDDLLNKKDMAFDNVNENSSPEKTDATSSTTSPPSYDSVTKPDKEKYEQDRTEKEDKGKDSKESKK
Experimental: The effect of these KnotBodies on cells expressing human Nav1.7 (huNav1.7) channel was assessed using QPatch automated patch-clamp platform (Sophion). For the testing of Nav1.7 ion channel currents, CHO cells stably expressing human Nav1.7 (GenBank accession number NM 002977; cell line catalogue number CT6003, Charles River Discovery, Cleveland, USA) were subjected to the QPatch electrophysiology assay in the presence or absence of the KnotBody fusions or the antibody isotypes (negative controls). Internal and external physiological solutions were freshly prepared prior to the assay. The extracellular solution contained 145 mM NaCl, 4 mM KCl, 2 mM CaCl2, 1 mM MgCl2, 10 mM HEPES and 10 mM glucose; the pH was adjusted to 7.4 with NaOH; the osmolarity was ˜305 mOsm/L. The intracellular solution contained: KF (120 mM), KCl (20 mM), HEPES (10 mM) EGTA (10 mM); the pH was adjusted to 7.2 with KOH; osmolarity was ˜300 mOsm/L.
A series of depolarising voltage (channel activating) pulses were used to monitor the channel currents upon adding control (extracellular solution) to define a control baseline of current activity. To these measured control channel currents KnotBody or parental antibody isotypes (control molecules) were applied to the external bathing solution. The parental KnotBody KB_A12 (with trypsin inhibitor knottin EETI-II at CDR2) were used as test molecule isotype controls for the testing. […] The elicited, maximum outward current values measured during the −10 mV activating step for each solution period (a control, baseline level of current was determined at 10 minutes after application of the control external recording solution and a test level of current was determined after 20 minutes of application of KnotBody or its isotype) and average inhibition was determined between the current from the 10 minute baseline control current and the subsequent 20 minute KnotBody application. […] The average inhibition values (with external control reduction subtracted) for KnotBodies and isotypes was calculated.

B1: KB_A07: EETI-II VL CDR2 KnotBody, D1A12 VH, VL SEQ ID NO: 136/372; parental/isotype control (antibody, V domains shown)
VH: EVQLVESGGGLVRPGGSLRLSCAASGFTFSSYAMSWVRQAPGKGLEWVSAISGSGGSTYYADSVKGRFTISRDNTKNSLYLQMTSLRADDTAFYYCVKDFGPGYGTGWFDYWGPGTLVTVSS
VL: DIQMTQSPSSLSASVGDRVTITCRASQSISSYLNWYQQKPGKAPKLLIYAAGVCPRILMRCKQDSDCLAGCVCGPNGFCGSRSGVPSRFSGSGSGTDFTLTISSLQPEDFATYYCQQGASPPYTFGQGTKVEIKR
B1 was tested, and the “TRF signal for 0.6 ug/mL Fab” value ([1]; KnotBody Fab 0.6 ug/mL, background (no Fab) 431) was 107814, the “TRF signal for 2.4 ug/mL Fab” value ([1]; KnotBody Fab 2.4 ug/mL, background (no Fab) 406) was 201003 and the “TRF signal for 10 ug/mL Fab” value ([1]; KnotBody Fab 10 ug/mL, background (no Fab) 420) was 226082. The “binding to LOX-1” value [2] was “no detectable binding to the LOX-1”, the “% reduction in binding signal” value ([3]; […], monoclonal phage, streptavidin coated plates) was 98% and the “Tryspin binding signal (FU)” value ([3]; monoclonal phage supernatant, biotinylated trypsin on neutravidin coated plates, TRF) was 21448 FU. The “% current remaining” value [4] was 70.9%.

B2: KB_A12_ProTx-III Gly (antibody, V domains shown)
VH: B1 VH
VL: QSVLTQPPSVSEAPRQRVTITCSGSSSNIGNNAVNWYQQLPGKAPKLLIYAAGRDCLKFGWKCNPRNDKCCSGLKCGSNHNWCKLHIGANSGVSDRFSAAKSGTSASLAINGLRSEDEADYYCAAWDDSLNGYVFGTGTKLTVLG
In the case of B2, the “Mean % inhibition of Nav1.7 currents” value ([5]; concentration tested 22.3 μM) is reported as 26.6%.

B3: KB_A12_ProTx-III 2M Gly: ProTx-III 2M Gly in VL CDR2 of KB_A12, IgG; Nav1.7 KnotBody (antibody, V domains shown)
VH: B1 VH
VL: B2 VL with D55G, L85W
For B3, the “Mean % inhibition of Nav1.7 currents” value ([5]; concentration tested 15.4 μM) was 63.5%.
